# Results taken from US11814435B2, “Therapeutic antibodies and their uses” (PFIZER INC., priority 2015, dated 2023).
# B1: P5A2: anti-BCMA_H2B4 bispecific, human IgG2dA: anti-BCMA arm P5A2, anti-CD3 arm H2B4 (antibody, V domains shown)
# VH: EVQLLESGGGLVQPGGSLRLSCAASGFTFSSYAMNWVRQAPGKGLEWVSAISDSGGSTYYADSVKGRFTISRDNSKNTLYLQMNSLRAEDTAVYYCARYWPMDIWGQGTLVTVSS
# VL: EIVLTQSPGTLSLSPGERATLSCRASQSVSSSYLAWYQQKPGQAPRLLMYDASIRATGIPDRFSGSGSGTDFTLTISRLEPEDFAVYYCQQYGSWPLTFGQGTKVEIK
# B2: h2B4: anti-CD3 antibody (antibody, V domains shown)
# VH: EVQLVESGGGLVQPGGSLRLSCAASGFTFSDYYMTWVRQAPGKGLEWVAFIRNRARGYTSDHNASVKGRFTISRDNAKNSLYLQMNSLRAEDTAVYYCARDRPSYYVLDYWGQGTTVTVSS
# VL: DIVMTQSPDSLAVSLGERATINCTSSQSLFNVRSRKNYLAWYQQKPGQPPKLLISWASTRESGVPDRFSGSGSGTDFTLTISSLQAEDVAVYYCKQSYDLFTFGSGTKLEIK
# Experiments:
# [1] = test system: primary myeloma cells from myeloma patients; assay: T cell mediated killing of primary myeloma patient samples by anti-BCMA/CD3 bispecific (flow cytometry live cell count); assay type: cell-based, human; conditions: Patient MM00146; anti-BCMA_h2B4 bispecific; five days after treatment
# Description: Human anti-BCMA (P5A2, A02_Rd4_0.6 nM_C01, A02_Rd4_6 nM_C16, Combo_Rd4_0.6 nM_C29, and P6E01 L3PY/H3TAQ) and human anti-CD3 (h2B4) antibodies were expressed as human IgG2dA engineered with EEEE or RRRR for bispecific exchange as describe in Example 8.
# Cells were treated with 10-fold serially diluted bispecific antibody. […] EC50 was calculated by Prism software.
# [2] = target: hCD3 (human CD3) (Homo sapiens, UniProt P07766); assay: Kinetics and affinity of hCD3/human IgG interactions by SPR (Bio-Rad Proteon XPR36); assay type: binding
# Description: All experiments were performed on a Bio-Rad Proteon XPR36 surface Plasmon resonance biosensor (Bio-Rad, Hercules, Calif.). An array of anti-CD3 antibodies was prepared using an amine-coupling method on a Bio-Rad GLC Sensor Chip similar to that described in Abdiche, et al., Anal. Biochem. 411, 139-151 (2011). The analysis temperature for the immobilization was 25° C. and the running buffer was HBS-T+(10 mM HEPES, 150 mM NaCl, 0.05% Tween-20, pH 7.4). Channels were activated in the analyte (horizontal) direction by injecting a mixture of 1 mM ECD and 0.25 mM NHS for 3 minutes at a flow rate of 30 μL/min. IgGs were immobilized on the activated spots by injecting them in the ligand (vertical) direction at 20 μg/mL in 10 mM Acetate pH 4.5 buffer for 1.5 minutes at […]. The activated surfaces were blocked by injecting 1M ethanolamine, pH 8.5 in the analyte direction for 3 minutes at 30 μL/min.
# The analysis temperature for the hCD3 binding analysis was 37° C. or 25° C. in a running buffer of HBS-T+, supplemented with 1 mg/mL BSA. A kinetic titration method was employed for the interaction analysis as described in Abdiche, et al. The hCD3 (human CD3) analyte was injected in the analyte direction using a series of injections from low to high concentration. The concentrations used were 0.08 nM, 0.4 nM, 2 nM, 10 nM and 50 nM (a 5-membered series, with a 5-fold dilution factor and top concentration of 50 nM). The association time for a given analyte dilution was two minutes. Immediately after the 50 nM hCD3 injection, dissociation was monitored for 2 hours. Prior to the hCD3 analyte injections, buffer was injected 5 times using the same association and dissociation times at the hCD3 analyte cycles to prepare a buffer blank sensorgram for double-referencing purposes (double referencing as described in Myszka, J. Mol. Recognit. 12, 279-284 (1999).
# The sensorgrams were double-referenced and fit to a 1:1 Langmuir with mass transport kinetic titration model in BIAevaluation Software version 4.1.1 (GE Lifesciences, Piscataway, N.J.).
# [3] = target: cyCD3ed (Macaca fascicularis, UniProt Q95LI5); assay: Kinetics and affinity of cyCD3ed/human IgG interactions by SPR (Bio-Rad Proteon XPR36); assay type: binding, cynomolgus
# Chain of cyCD3ed (Q95LI5 22-117 limits assumed): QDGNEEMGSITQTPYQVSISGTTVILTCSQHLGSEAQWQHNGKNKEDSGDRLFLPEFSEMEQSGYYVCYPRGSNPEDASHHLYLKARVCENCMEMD
# Chain of cyCD3ed (Q95LI8 22-105 partner limits assumed): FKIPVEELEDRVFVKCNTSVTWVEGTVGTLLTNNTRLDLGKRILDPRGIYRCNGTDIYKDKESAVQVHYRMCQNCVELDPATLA
# Chain of hCD3 (human CD3) (P07766 23-126 limits assumed): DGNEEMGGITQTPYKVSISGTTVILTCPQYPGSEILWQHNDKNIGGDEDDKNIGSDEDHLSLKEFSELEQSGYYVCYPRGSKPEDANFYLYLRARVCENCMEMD
# Chain of hCD3 (human CD3) (P04234 22-105 partner limits assumed): as the sequence (Q95LI8 22-105 partner limits assumed) above, with V5I, K15N, V20I, T32S, N33D, N34I, A64T, N74S, L83V counted along it
Molecule,EC50 [1],ka huCD3ed @25° C. ([2]; 25° C.),kd huCD3ed @25° C. ([2]; 25° C.),ka huCD3ed @37° C. ([2]; 37° C.),kd huCD3ed @37° C. ([2]; 37° C.),ka cyCD3ed @25° C. [3],kd cyCD3ed @25° C. [3]
B1,0.946 nM,,,,,,
B2,,370000 M⁻¹ s⁻¹,0.002 s⁻¹,437000 M⁻¹ s⁻¹,0.01369 s⁻¹,390000 M⁻¹ s⁻¹,0.0015 s⁻¹
